For orientation: Km means the substrate concentration at which the rate is half of its maximum.

This is an account of results in PMC10629212, “Active Site Loop Engineering Abolishes Water Capture in Hydroxylating Sesquiterpene Synthases” (ACS Catalysis, 2023).

Where a chain is given by its changes, count along the chain named. Numbers in names are those of the source.

B1: Gd11olS (germacradiene-11-ol synthase) (Streptomyces coelicolor A3(2)) (protein)
chain: MTQQPFQLPHFYLPHPARLNPHLDEARAHSTTWAREMGMLEGSGVWEQSDLEAHDYGLLCAYTHPDCDGPALSLITDWYVWVFFFDDHFLEKYKRSQDRLAGKAHLDRLPLFMPLDDAAGMPEPRNPVEAGLADLWTRTVPAMSADWRRRFAVATEHLLNESMWELSNINEGRVANPVEYIEMRRKVGGAPWSAGLVEYATAEVPAAVAGTRPLRVLMETFSDAVHLRNDLFSYQREVEDEGELSNGVLVLETFFGCTTQEAADLVNDVLTSRLHQFEHTAFTEVPAVALEKGLTPLEVAAVGAYTKGLQDWQSGGHEWHMRSSRYMNKGERPLAGWQ
notes: likely N-terminal germacradienol synthase domain of the bifunctional geosmin synthase (as in PDB 5DZ2); recombinant purified
B2: Gd11olS (germacradiene-11-ol synthase) (Streptomyces coelicolor A3(2); D240G/E239R/E241S/V238R) (protein)
chain: B1 chain with V238R, E239R, D240G, E241S
notes: as for B1
B3: PTS (patchoulol synthase) (Pogostemon cablin; E461S/K458R/K459R/R460G) (protein)
chain: MELYAQSVGVGAASRPLANFHPCVWGDKFIVYNPQSCQAGEREEAEELKVELKRELKEASDNYMRQLKMVDAIQRLGIDYLFVEDVDEALKNLFEMFDAFCKNNHDMHATALSFRLLRQHGYRVSCEVFEKFKDGKDGFKVPNEDGAVAVLEFFEATHLRVHGEDVLDNAFDFTRNYLESVYATLNDPTAKQVHNALNEFSFRRGLPRVEARKYISIYEQYASHHKGLLKLAKLDFNLVQALHRRELSEDSRWWKTLQVPTKLSFVRDRLVESYFWASGSYFEPNYSVARMILAKGLAVLSLMDDVYDAYGTFEELQMFTDAIERWDASCLDKLPDYMKIVYKALLDVFEEVDEELIKLGAPYRAYYGKEAMKYAARAYMEEAQWREQKHKPTTKEYMKLATKTCGYITLIILSCLGVEEGIVTKEAFDWVFSRPPFIEATLIIARLVNDITGHEFERRGSHVRTAVECYMEEHKVGKQEVVSEFYNQMESAWKDINEGFLRPVEFPIPLLYLILNSVRTLEVIYKEGDSYTHVGPAMQNIIKQLYLHPVPY
notes: recombinant purified; construct details only in Supporting Information
B4: PTS (patchoulol synthase) (Pogostemon cablin; C405A) (protein)
chain: B3 chain with C405A, R458K, R459K, G460R, S461E
notes: as for B3
B5: PTS (patchoulol synthase) (Pogostemon cablin; Y525F) (protein)
chain: B3 chain with R458K, R459K, G460R, S461E, Y525F
notes: as for B3
B6: PTS (patchoulol synthase) (Pogostemon cablin; Y525A) (protein)
chain: B3 chain with R458K, R459K, G460R, S461E, Y525A
notes: as for B3
B7: PTS (patchoulol synthase) (Pogostemon cablin) (protein)
chain: B3 chain with R458K, R459K, G460R, S461E
notes: as for B3
B8: PTS (patchoulol synthase) (Pogostemon cablin; Y531F) (protein)
chain: B3 chain with R458K, R459K, G460R, S461E, Y531F
notes: as for B3

Substrate in one series: CC(C)=CCC/C(C)=C/CC/C(C)=C/CO[P@@](=O)(O)OP(=O)(O)O
Nature of the series: steady-state kinetics of sesquiterpene formation (details in Supporting Information). Format: biochemical, Streptomyces coelicolor. Particulars: Mg2+-dependent enzyme; conditions in Supporting Information. The source says: steady-state kinetics of sesquiterpene formation (details in Supporting Information) on Gd11olS (germacradiene-11-ol synthase)
On to B1, for which the Km is 0.45 ± 0.08 µM.

With B2, the Km was found to be 6.02 ± 1.25 µM.

Substrate in another series: CC(C)=CCC/C(C)=C/CC/C(C)=C/CO[P@@](=O)(O)OP(=O)(O)O
The series is described as above. Format: biochemical, Pogostemon cablin. The note with it: Mg2+-dependent enzyme; conditions in Supporting Information. The source holds these as a separate data set. The text has this:
steady-state kinetics of sesquiterpene formation (details in Supporting Information) on PTS (patchoulol synthase)
Consider B3, for which the Km turned out to be 1.54 ± 0.16 µM.

For the protein B4, the Michaelis-Menten constant (Km) is 0.67 ± 0.09 µM.

For B5, the Km is 4.8 ± 1.26 µM.

As for B6, the Km stood at 5.27 ± 1.22 µM.

In the case of B7, the Km amounted to 0.68 ± 0.14 µM.

Consider B8, for which the Km worked out at 0.37 ± 0.09 µM.
